B1: mAb10971 (antibody, V domains shown)
VH: EVQLVESGGGLIQPGGSLRLSCAASGVTVSSNYMSWVRQAPGKGLEWVSVIYSGGSTFYSDSVKGRFSISRDNSKNTLYLQMNSLRAEDTAVYYCARDLYYYGMDVWGQGTTVTVSS
VL: DIQLTQSPSFLSASVGDRVTITCRASQGISTYLAWYQQKPGKAPKLLIYAASTLQSGVPSRFSGSGSGTEFTLTISSLQPEDFATYYCQQLDSYPGLTFGGGTKVEIKR
B2: mAb10957 (antibody, V domains shown)
VH: EVQLVESGGGLVQPGGSLRLSCAASGVTVSSNYMSWVRQAPGKGLEWVSVIYSGGSTFYADSVKGRFTISRDNSKNTLFLQMNSLRIEDTAVYYCARDLGPYGMDVWGQGTTVTVSS
VL: DIQLTQSPSFLSASVGDRVTITCRASQGISSYLAWYQQKPGKAPKLLIYAASTLQSGVPSRFSGSGSGTQFILTISSLQPEDFATYYCQQLNSYPGFTFGPGTKVDIKR
B3: mAb10956 (antibody, V domains shown)
VH: EVQLVESGGGLVQPGGSLRLSCAASGLTVSSNYMSWVRQAPGKGLEWVSVIYSGGSTFYADSVKGRFTISRDNSKNTLYLQMNSLRAEDTAVYYCARDLIKYGMDVWGQGTTVTVSS
VL: not shown
B4: mAb10967 (antibody, V domains shown)
VH: EVQLVESGGGLVQPGGSLRLSCAASGFTVSSNYMSWVRQAPGKGLEWVSVIYPGGSTFYADSVKGRFTISRDNSKNTLYLQMNSLRAEDTAVYYCARDQRDFAWGQGTLVTVSS
VL: DIQMTQSPSSLSASVGDRVTITCQASQDISNYLNWYQQKPGKAPKLLIYDASNLETGVPSRFSGSGSGTDFTFTISGLQPEDIATYYCQQYDNLPPTFGQGTRLEIKR
B5: mAb10955 (antibody, V domains shown)
VH: EVQLVESGGGLVQPGGSLRVSCAASGFTVSRNYMSWVRQAPGKGLEWVSVIYSGGSTFYADSVKGRFTISRDNSKNTLYLQMNSLRAEDTAIYYCARYIPRFDPWGQGTLVTVSS
VL: DIQMTQSPSSLSASVGDRVTITCQASQDISNYLNWFQQKPGRAPKLLIYDASNLETGVPSRFSGSGSGTDFTFTISSLQPEDIATYYCQQYDNLPITFGQGTRLEIKR
B6: mAb10954 (antibody, V domains shown)
VH: EVQLVESGGGLVQPGGSLRLSCAASGITVSSNYMSWVRQAPGKGLEWVSLIYSGGSTYYADSVKGRFTISRDNSKNTLYLQMNSLRVEDTAVYYCARDHGMAAAGYNYWGQGTLVTVSS
VL: DIQMTQSPSSLSASVGDRVTITCQASQDINKYLNWYQQKPGKAPKLLIYDASNLETGVPSRFSGSGSGTDFTFTINSLQPEDFATYFCQQYDNLPPAFGQGTKVEIKR
B7: mAb10964 (antibody, V domains shown)
VH: QVQLQESGPGLVKPSETLSLTCTVSGGSINNYYWIWIRQPPGKGLEWIGYIYHSGSTNYNPSLKSRVTISVDTSKNQFSLKVSSVTAADTAVYYCANMVRGVYEDDYWGQGTLVTVSS
VL: DIQMTQSPSSLSASVGDRVTITCRASQSISNYLNWYQQKPGKAPKLLIFAASSLRSGVPSRFSGSGSGTDFTLTISSLHPEDFATYYCQQNYNTPLTFGPGTKVDIKR
B8: mAb10966 (antibody, V domains shown)
VH: EVQLVESGGGLVQPGGSLRLSCAASGLTVSSNYMSWVRQAPGKGLEWVSVIYSGGSTFYADSVKGRFTISRDNSKNTLYLQMNSLRPEDTAVYYCAREGRIAATGYGMDVWGQGTTVTVSS
VL: not shown

These binders were tested against SARS-COV-2 RBD extracellular domain expressed with a C-terminal mouse IgG2a (SARS-CoV-2).

B1 and B2 cannot be ordered by Kd: no more than 0.0253 nM for the first, no more than 0.0279 nM for the second.

Compared with B3, B4 is lower in Kd: 0.395 nM for the first, no more than 0.0251 nM for the second.

Compared with B5, B6 is lower in Kd: 0.0592 nM for the first, no more than 0.0173 nM for the second.

B7 and B8 cannot be ordered by Kd: no more than 0.007 nM for the first, no more than 0.0249 nM for the second.

B1 was tested, and the koff was no more than 1e-05 s⁻¹.

B1 gave a kon of 395000 M⁻¹ s⁻¹.

B1 and B2 cannot be ordered by t½: no less than 19.2 h for the first, no less than 19.2 h for the second.

Going from B3 to B4, the t½ rises from 1.3 h to no less than 19.2 h.

Compared with B5, B6 is higher in t½: 8.23 h for the first, no less than 19.2 h for the second.

B7 and B8 cannot be ordered by t½: no less than 19.2 h for the first, no less than 19.2 h for the second.

Reference: patent US20260234738A1 (Regeneron, published 2026)
